According to IntAct's records for PubMed 19497856:

B1: Homeobox protein SIX1 (Homo sapiens), Q15475 (parent)
chain: MSMLPSFGFTQEQVACVCEVLQQGGNLERLGRFLWSLPACDHLHKNESVLKAKAVVAFHRGNFRELYKILESHQFSPHNHPKLQQLWLKAHYVEAEKLRGRPLGAVGKYRVRRKFPLPRTIWDGEETSYCFKEKSRGVLREWYAHNPYPSPREKRELAEATGLTTTQVSNWFKNRRQRDRAAEAKERENTENNNSSSNKQNQLSPLEGGKPLMSSSEEEFSPPQSPDQNSVLLLQGNMGHARSSNYSLPGLTASQPSHGLQTHQHQLQDSLLGPLTSSLVDLGS
partner: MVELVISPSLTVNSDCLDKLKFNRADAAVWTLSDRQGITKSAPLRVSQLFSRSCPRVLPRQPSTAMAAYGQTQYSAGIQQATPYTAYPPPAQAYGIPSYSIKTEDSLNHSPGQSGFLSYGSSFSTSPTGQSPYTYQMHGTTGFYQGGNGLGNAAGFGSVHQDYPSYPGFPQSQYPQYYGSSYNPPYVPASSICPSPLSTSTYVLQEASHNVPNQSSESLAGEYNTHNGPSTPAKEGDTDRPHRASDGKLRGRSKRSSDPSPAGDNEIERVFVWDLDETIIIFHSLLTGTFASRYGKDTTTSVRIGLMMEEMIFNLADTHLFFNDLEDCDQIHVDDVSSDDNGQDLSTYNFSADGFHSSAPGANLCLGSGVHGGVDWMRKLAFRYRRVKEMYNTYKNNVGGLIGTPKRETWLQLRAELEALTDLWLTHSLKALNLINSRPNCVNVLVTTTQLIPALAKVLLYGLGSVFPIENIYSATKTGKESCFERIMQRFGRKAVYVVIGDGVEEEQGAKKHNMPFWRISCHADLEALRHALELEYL

Variants of: B1
Details: with eya2_human EYA2, O00167

Variant	effect of a mutation on the interaction
MSMLPSFGFTQEQVACECEVLQQGGNLERLGRFLWSLPACDHLHKNESVLKAKAVVAFHRGNFRELYKILESHQFSPHNHPKLQQLWLKAHYVEAEKLRGRPLGAVGKYRVRRKFPLPRTIWDGEETSYCFKEKSRGVLREWYAHNPYPSPREKRELAEATGLTTTQVSNWFKNRRQRDRAAEAKERENTENNNSSSNKQNQLSPLEGGKPLMSSSEEEFSPPQSPDQNSVLLLQGNMGHARSSNYSLPGLTASQPSHGLQTHQHQLQDSLLGPLTSSLVDLGS [V17E]	decreasing interaction strength
